The text below walks through data of patent US20180155431A1 (Hoffmann-La Roche, published 2018).

The assay has as its target T1, human angiopoietin 2 (human, UniProt O15123 19-496, limits assumed).
T1 construct: The protein was bought (R&D Systems Cat. No. 623-AN) or produced in house; also called ANG-2; ANGPT2
T1 sequence: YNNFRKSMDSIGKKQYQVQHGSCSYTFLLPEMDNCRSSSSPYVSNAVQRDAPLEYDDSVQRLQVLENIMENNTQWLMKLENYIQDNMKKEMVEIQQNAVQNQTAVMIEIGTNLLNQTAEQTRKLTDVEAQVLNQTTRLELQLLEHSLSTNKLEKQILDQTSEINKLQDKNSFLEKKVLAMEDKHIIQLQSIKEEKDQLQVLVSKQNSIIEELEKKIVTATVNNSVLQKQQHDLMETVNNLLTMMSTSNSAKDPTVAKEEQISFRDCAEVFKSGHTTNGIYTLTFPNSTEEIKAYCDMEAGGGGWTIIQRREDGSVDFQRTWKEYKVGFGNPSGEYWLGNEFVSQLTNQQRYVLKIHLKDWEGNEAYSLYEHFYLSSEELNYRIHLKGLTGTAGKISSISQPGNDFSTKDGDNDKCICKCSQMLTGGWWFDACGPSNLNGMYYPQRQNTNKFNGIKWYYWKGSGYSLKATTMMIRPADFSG
Briefly: ANG-2/Tie2 interaction ELISA: antibody dilutions pre-incubated with 0.2 ug/ml human ANG-2, then added to plate-coated human Tie2; bound ANG-2 detected. How it is done:
After washing a mixture of 0.5 μg/ml biotinylated anti-Angiopoietin-1/2 clone (R&D Systems #BAF923, BAM0981 R&D Systems, UK) and 1:3000 diluted streptavidin HRP (Roche Diagnostics GmbH, DE, Cat. No. 11089153001) was added for 1 h. Thereafter the plates were washed 6 times with PBST. Plates were developed with freshly prepared ABTS reagent (Roche Diagnostics GmbH, DE, buffer #204 530 001, tablets #11 112 422 001) for 30 minutes at RT. Absorbance was measured at 405 nm.
In general terms: In an ELISA, binding on a coated surface is turned into a signal by an enzyme label.

B1: <ANG-2> LC06 (antibody, V domains shown)
VH: not shown
VL: QPGLTQPPSVSVAPGQTARITCGGNNIGSKSVHWYQQKPGQAPVLVVYDDSDRPSGIPERFSGSNSGNTATLTISRVEAGDEADYYCQVWDSSSDHYVFGTGTKVTVLG
B1 returned a concentration for half-maximal inhibition (IC50) of 0.1 nM.

In general, IC50 refers to the concentration needed to halve the response being measured.
